Experimental data from PMC6934973 (Iranian Journal of Pharmaceutical Research : IJPR, 2019).

Assay: Parallel Artificial Membrane Permeability Assay (PAMPA)
Assay type: in vitro ADME
Settings: for Papp: read-out: Pe × 10-6 (cm/s), effective permeability; for permeability compared to norbuprenorphine-Leu-enkephalin: result in words
[1] = 200 μM, pH 7.4, 20% 1-propanol cosolvent, 4 h
[2] = 200 μM, pH 7.4, 20% 1-propanol cosolvent, 4 h, room temperature

Row | SMILES | % PAMPA Transport after 4h [1] [%] | %Membrane retention [2] [%] | Papp [2] [×10⁻⁶ cm/s] | permeability compared to norbuprenorphine-Leu-enkephalin | Pe × 10-6 (cm/s), effective permeability [2]
1 | CO[C@]12CC[C@@]3(CC1=C(C)C(C)(C)C)[C@H]1Cc4ccc(O)c5c4[C@@]3(CCN1C(=O)CCC(=O)N[C@@H](Cc1ccc(O)cc1)C(=O)NCC(=O)NCC(=O)N[C@@H](Cc1ccccc1)C(=O)N[C@@H](CC(C)C)C(=O)O)[C@H]2O5 [Compound 23] | 1.2 | 0 | 0.63 | lower permeability | –
2 | COc1ccc2c3c1O[C@@H]1[C@]34CCN(C(=O)[C@H](CCSC)NC(=O)[C@H](Cc3ccccc3)NC(=O)CNC(=O)CNC(=O)[C@@H](N)Cc3ccc(O)cc3)[C@H](C2)[C@]42CC[C@@]1(OC)/C(=C(\C)C(C)(C)C)C2 [Compound 14] | 1.6 | 0 | 0.77 | – | –
3 | CC(C)C[C@H](NC(=O)[C@H](Cc1ccccc1)NC(=O)CNC(=O)CNC(=O)[C@@H](N)Cc1ccc(O)cc1)C(=O)O [Standard Leu-enkephalin, Leu-enkephalin, reference compound] | 0.8 | 0 | 0.38 | – | –
4 | CSCC[C@H](NC(=O)[C@H](Cc1ccccc1)NC(=O)CNC(=O)CNC(=O)[C@@H](N)Cc1ccc(O)cc1)C(=O)O [Standard Met-enkephalin, Met-enkephalin, reference compound] | 0.2 | 0 | 0.09 | – | –
5 | CO[C@]12CC[C@@]3(C/C1=C(\C)C(C)(C)C)[C@H]1Cc4ccc(O)c5c4[C@@]3(CCN1C(=O)[C@H](CC(C)C)NC(=O)[C@H](Cc1ccccc1)NC(=O)CNC(=O)CNC(=O)[C@@H](N)Cc1ccc(O)cc1)[C@H]2O5 [Compound 18] | 4.3 | 30.9 | 2.13 | – | –
6 | CC(C)NCC(O)COc1cccc2ccccc12 (centres unmarked) [Propanolol, reference compound] | 9.9 | 21.8 | – | – | 5.23 × 10-6 cm/s
7 | COc1ccc2c3c1O[C@@H]1[C@]34CCN(C(=O)[C@H](CCSC)NC(=O)[C@H](Cc3ccccc3)NC(=O)CNC(=O)CNC(=O)[C@@H](N)Cc3ccc(O)cc3)[C@H](C2)[C@]42CC[C@@]1(OC)/C(=C(/C)C(C)(C)C)C2 [Compound 15] | 2.9 | 0 | 1.42 | – | –
8 | CO[C@]12CC[C@@]3(C/C1=C(/C)C(C)(C)C)[C@H]1Cc4ccc(O)c5c4[C@@]3(CCN1C(=O)[C@H](CC(C)C)NC(=O)[C@H](Cc1ccccc1)NC(=O)CNC(=O)CNC(=O)[C@@H](N)Cc1ccc(O)cc1)[C@H]2O5 [Compound 17] | 6.8 | 10.3 | 3.46 | – | –
9 | CO[C@]12CC[C@@]3(CC1=C(C)C(C)(C)C)[C@H]1Cc4ccc(O)c5c4[C@@]3(CCN1C(=O)c1ccccc1C(=O)N[C@@H](Cc1ccc(O)cc1)C(=O)NCC(=O)NCC(=O)N[C@@H](Cc1ccccc1)C(=O)N[C@@H](CC(C)C)C(=O)O)[C@H]2O5 [Compound 24] | 1.9 | 0 | 0.92 | lower permeability | –
